Reference: US20220089691A1 (NATIONAL DEFENSE MEDICAL CENTER, published 2022)

Molecular target: T1, SARS-CoV spike protein as made in Vero E6 cells infected with SARS-CoV (SARS-CoV, UniProt P59594 14-1255)
T1 construct: whole, on cells
Experiment: IFA on Vero E6 cells infected with SARS-CoV

B1: Monoclonal antibody (mAb) 8a-1 (antibody, V domains shown)
VH: EVQLQESGGGLVQPGGSLKLSCAASGFTFSSYTMSWVRQTPEKRLEWVAYISNGGGSISYPDTVKGRFTISRDNAKNTLYLHMSSLKSEDTAMYHCAREGLRPGDRDRYYAMDYWGQGTSVTVSS
VL: DIVITQSPALMAAFPGDRVTITCSVSSSVSSSNLHWYRQKSETSPKPWIYGTSTLASGVPVRFSGSGSGTSYSLTISSMEAEDAATYYCQQWSSYPLTFGAGTKLELKR
notes: also called clone 8a-1; first antibody
- binding result: binds

B2: Monoclonal antibody (mAb) 27b-2 (antibody, V domains shown)
VH: EVQLQESGGGLVKLGGSLKLSCAASGFTFSTYYMSWVRQTPEKRLELVAAINSNGGGTYYPDNVKGRFTISRDNAKNTLYLQMSSLKSEDTALYYCTNYFGSTYAMDYWGQGTSVTVSS
VL: DIVLTQSPLSLPVSLGDQASISCRSSQSLVHSNGNTYLHWYLQKPGQSPKLLIYKVSNRFSGVPDRFSGSGLGTDFTLKIIRVEAEDLGVYFCSQNTHVPFTFGSGTKLEIKR
notes: also called clone 27b-2; second antibody
- binding result: binds
